# In patent US20180162928A1 (Janssen / Centocor, published 2018):
# Substitutions are numbered along the chain they refer to.
# B1: ISOP194AR9P1C5 (designed binder, not shown: small tags and cut ends)
# chain: LPAPKNLVVSRVTEDSARLSWLRDFNGRAFFDSFLIQYQESEKVGEAIVLTVPGSERSYDPTGLKPGTEYTVSIYGVFITWIHVRSNPLSAIFTT
# notes: FN3 domain; E. coli lysate in the ELISA
# B2: ISOP121AR5P1D11 (designed binder, not shown: small tags and cut ends)
# chain: LPAPKNLVVSRVTEDSARLSWEWLEHFDSFLIQYQESEKVGEAIVLTVPGSERSYDLTGLKPGTEYTVSIYGVYQRKVEFHSNPLSAIFTT
# notes: as for B1
# B3: ISOP194AR9P1C10 (designed binder, not shown: small tags and cut ends)
# chain: B2 chain with L19P, Q75N, E79N, H81Y
# notes: as for B1
# B4: ISOP194AR9P1F2 (designed binder, not shown: small tags and cut ends)
# chain: B2 chain with V9I, Q75N, E79N, H81Y
# notes: as for B1
# B5: ISOP194AR9P1E9 (designed binder, not shown: small tags and cut ends)
# chain: B2 chain with E79N, H81Y
# notes: as for B1
# B6: ISOP194AR9P1H9 (designed binder, not shown: small tags and cut ends)
# chain: B2 chain with L31Q
# notes: as for B1
# B7: ISOP194AR9P1E8 (designed binder, not shown: small tags and cut ends)
# chain: B2 chain with V48I
# notes: as for B1
# B8: ISOP194AR9P1C3 (designed binder, not shown: small tags and cut ends)
# chain: B2 chain with E14Q, D15N, Q33H
# notes: as for B1
# B9: ISOP194AR9P1H3 (designed binder, not shown: small tags and cut ends)
# chain: LPAPKNLVVSRVTEDSARLSWNASWISHNFFDSFLIQYQESEKVGEAIVLTVPGSERSYDLTGLKPGTEYTVSIYGVYERKTAFYSNPLSAIFTT
# notes: as for B1
# B10: ISOP194BR9P1F7 (designed binder, not shown: small tags and cut ends)
# chain: LPAPKNLVVSRVTEDSARLSWFNADEEYFDSFLIQYQESEKVGEAIVLTVPGSERSYDLTGLKPGTEYTVSIYGVYTRGRYEWRESNPLSAIFTT
# notes: as for B1
# B11: ISOP121BR5P1A7 (designed binder, not shown: small tags and cut ends)
# chain: LPAPKNLVVSRVTEDSARLSWTTAFHNEYFDSFLIQYQESEKVGEAIVLTVPGSERSYDLTGLKPGTEYTVSIYGVYSRPKAEFTSNPLSAIFTT
# notes: as for B1
# B12: ISOP194BR9P1H4 (designed binder, not shown: small tags and cut ends)
# chain: B11 chain with R18C
# notes: as for B1
# B13: ISOP194BR9P1G9 (designed binder, not shown: small tags and cut ends)
# chain: B11 chain with S78I, P80V, K81Q, A82V, E83L, F84W, T85F
# notes: as for B1
# B14: ISOP194BR9P1E4 (designed binder, not shown: small tags and cut ends)
# chain: B11 chain with S78Q, P80G, K81Y, A82H, E83N, F84W, T85F
# notes: as for B1
# B15: ISOP121HR5P1G9 (designed binder, not shown: small tags and cut ends)
# chain: LPAPKNLVVSRVTEDSARLSWTAPDAAFDSFPINYGERATKGEAINLYVPGSERSYDLTGLKPGTEYWVLIGGVKGGLKSSPLWAWFTT
# notes: as for B1
# B16: ISOP194GR9P1C11 (designed binder, not shown: small tags and cut ends)
# chain: B15 chain with P32W, N34F, G36N, A39W, T40Q, K41N, N46R, Y48T
# notes: as for B1
# B17: ISOP121GR5P1B4 (designed binder, not shown: small tags and cut ends)
# chain: B15 chain with V8I
# notes: as for B1
# B18: ISOP121AR5P1F9 (designed binder, not shown: small tags and cut ends)
# chain: LPAPKNLVVSRVTEDSARLSWGWSELIATHFDSFLIQYQESEKVGEAIVLTVPGSERSYDLTGLKPGTEYTVSIYGVYNRKVNFYSNPLSAIFTT
# notes: as for B1
# B19: ISOP121AR5P1F2 (designed binder, not shown: small tags and cut ends)
# chain: B18 chain with V9I
# notes: as for B1
# B20: ISOP194AR9P1D8 (designed binder, not shown: small tags and cut ends)
# chain: LPAPKNLVVSRVTEDSARLSWDTWNDFFDSFLIQYQESEKVGEAIVLTVPGSERSYDLTGLKPGTEYTVSIYGVYQRKVIWLSNPLSAIFTT
# notes: as for B1
# B21: ISOP194GR9P1F6 (designed binder, not shown: small tags and cut ends)
# chain: LPAPKNLVVSRVTEDSARLSWTAPDAAFDSFWIDYWERLSEGEAIALRVPGSERSYDLTGLKPGTEYYVWIVGVKGGKFSQPLRAWFTT
# notes: as for B1
# B22: ISOP194ER9P1A11 (designed binder, not shown: small tags and cut ends)
# chain: LPAPKNLVVSRVTEDSARLSWTAPDAAFDSFRIAYYETMVSGEAIVLTVPGSERSYDLTGLKPGTEYAVIIKGVKGGKPSWPLSAIFTT
# notes: as for B1
# B23: ISOP194ER9P1H9 (designed binder, not shown: small tags and cut ends)
# chain: B22 chain with L61P
# notes: as for B1
# B24: ISOP194ER9P1A3 (designed binder, not shown: small tags and cut ends)
# chain: B22 chain with K78M, P79V
# notes: as for B1
# B25: ISOP194ER9P1G3 (designed binder, not shown: small tags and cut ends)
# chain: B22 chain with V8I
# notes: as for B1
# B26: ISOP121BR5P1B7 (designed binder, not shown: small tags and cut ends)
# chain: LPAPKNLVVSRITEDSARLSWKWEEGFFDSFLIQYQESEKVGEAIVLTVPGSERSYDLTGLKPGTEYTVSIYGVYQRHASAFVSNPLSAIFTT
# notes: as for B1
# B27: ISOP121BR5P1D6 (designed binder, not shown: small tags and cut ends)
# chain: LPAPKNLVVSRVTEDSARLSWKQGTSFHFDSFLIQYQESEKVGEAIVLTVPGSERSYDLTGLKPGTEYTVSIYGVQLLANDIISSNPLSAIFTT
# notes: as for B1
# B28: ISOP194ER9P1E6 (designed binder, not shown: small tags and cut ends)
# chain: LPAPKNLVVSRVTEDSARLSWTAPDAAFDSFWIKYYEKRNPGEAIVLTVPGSERSYDLTGLKPGTEYLVIISGVKGGSRSVPLSAIFTT
# notes: as for B1
# B29: ISOP194BR9P1D1 (designed binder, not shown: small tags and cut ends)
# chain: LPAPKNLVVSRVTEDSARLSWEHSLLNDQWFDSFLIQYQESEKVGEAIVLTVPGSERSYDLTGLKPGTEYTVSIYGVYQRGRALWYSNPLSAIFTT
# notes: as for B1
# B30: ISOP194HR9P1B10 (designed binder, not shown: small tags and cut ends)
# chain: LPAPKNLVVSRVTEDSARLSWTAPDAAFDSFPIRYYERANGEAIVLTVPGSERSYDLTGLKPGTEYIVWIYGVKGGGRSGPLSAIFTT
# notes: as for B1
# B31: ISOP121AR5P1G6 (designed binder, not shown: small tags and cut ends)
# chain: LPAPKNLVVSRVTEDSARLSWHATFGDPFDSFLIQYQESEKVGEAIVLTVPGSERSYDLTGLKPGTEYTVSIYGVGRHYTVYDSNPLSAIFTT
# notes: as for B1
# B32: ISOP194GR9P1F9 (designed binder, not shown: small tags and cut ends)
# chain: LPAPKNLVVSRVTEDSARLSWTAPDAAFDSFWIFYNERWQNGEAIRLIVPGSERSYDLTGLKPGTEYSVIIPGVKGGRNSFPLWAWFTT
# notes: as for B1
# B33: ISOP121BR5P1D11 (designed binder, not shown: small tags and cut ends)
# chain: LPAPKNLVVSRVTEDSARLSWFNADEEYFDSFLIQYQESEKVGEAIVLTVPGSERSYDLTGLKPGTEYTVSIYGVYVRAVRFVSSNPLSAIFTT
# notes: as for B1
# B34: ISOP194BR9P1C8 (designed binder, not shown: small tags and cut ends)
# chain: LPAPKNLVVSRVTEDSARLSWYFAGELWFDSFLIQYQESEKVGEAIVLTVPGSERSYDLTGLKPGTEYTVSIYGVYQRGYHNWFSNPLSAIFTT
# notes: as for B1
# Experiments:
# Experiment in all cases: ELISA, lysate on plate-bound antigen
# [1] = molecular target: human serum albumin (human) (UniProt P02768)
# [2] = molecular target: unrelated Fc-fused recombinant protein
# [3] = molecular target: T1, recombinant biotinylated PD-L1 (rhPD-L1/Fc Chimera, R&D Systems 156-B7) (human, UniProt Q9NZQ7 19-238, biotinylated (sites not given))
# T1 construct: Bought Fc chimera; also called human PD-L1
# Description: Streptavidin-coated Maxisorp plates (Nunc catalog 436110) were blocked for 1 h in Starting Block T20 (Pierce) and then coated with biotinylated PD-L1 (using same antigen as in panning) or negative controls (an unrelated Fc-fused recombinant protein and human serum albumin) for 1 h. Plates were rinsed with TBST and diluted lysate was applied to plates for 1 h. Following additional rinses, wells were treated with HRP-conjugated anti-FN3 domain antibody (PAB25) for 1 h and then assayed with POD (Roche catalog 11582950001).
# T1 sequence (Q9NZQ7 19-238, change not shown): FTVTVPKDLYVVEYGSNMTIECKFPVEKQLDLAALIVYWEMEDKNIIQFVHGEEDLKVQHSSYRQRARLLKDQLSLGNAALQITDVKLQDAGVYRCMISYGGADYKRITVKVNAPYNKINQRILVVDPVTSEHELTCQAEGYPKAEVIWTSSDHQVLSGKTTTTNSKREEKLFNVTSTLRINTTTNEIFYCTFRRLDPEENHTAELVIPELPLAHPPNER
# Sequence of human serum albumin (human) (P02768 25-609 limits assumed): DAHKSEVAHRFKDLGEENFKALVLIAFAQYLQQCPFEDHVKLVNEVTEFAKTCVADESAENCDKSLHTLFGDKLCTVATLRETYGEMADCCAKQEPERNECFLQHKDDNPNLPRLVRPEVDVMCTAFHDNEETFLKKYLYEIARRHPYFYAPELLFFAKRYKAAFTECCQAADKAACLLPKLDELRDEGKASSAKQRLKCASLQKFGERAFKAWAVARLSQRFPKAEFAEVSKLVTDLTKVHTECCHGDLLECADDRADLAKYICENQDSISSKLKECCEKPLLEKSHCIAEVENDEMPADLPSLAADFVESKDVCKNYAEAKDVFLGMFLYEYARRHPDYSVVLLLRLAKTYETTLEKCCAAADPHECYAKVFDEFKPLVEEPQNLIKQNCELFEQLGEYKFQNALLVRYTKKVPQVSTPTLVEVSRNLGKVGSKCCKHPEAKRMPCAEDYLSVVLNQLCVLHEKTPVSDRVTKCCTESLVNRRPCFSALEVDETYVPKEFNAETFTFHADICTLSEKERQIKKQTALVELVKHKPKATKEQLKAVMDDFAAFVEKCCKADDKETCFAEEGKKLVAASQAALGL
Binder,ELISA HSA (RSU) [1] [RSU],ELISA Fc Control (RSU) [2] [RSU],ELISA PD-L1 Fc (RSU) [3] [RSU]
B1,1040,3440,4.37e+06
B2,1040,640,393000
B3,15000,38200,1.39e+07
B4,7520,1920,1.63e+07
B5,1600,5520,1.97e+07
B6,11400,21300,2.59e+06
B7,67700,6960,3.4e+06
B8,5920,56400,3.55e+06
B9,4880,9200,1.77e+07
B10,1760,1920,1.52e+07
B11,1120,800,389000
B12,3840,3040,4.06e+06
B13,960,640,1.44e+07
B14,1440,640,9.79e+06
B15,1760,880,17800
B16,1440,1040,164000
B17,560,800,16200

Binder,ELISA HSA (RSU) [1] [RSU],ELISA Fc Control (RSU) [2] [RSU],ELISA PD-L1 Fc (RSU) [3] [RSU]
B18,1040,1120,136000
B19,960,880,51000
B20,6560,12000,923000
B21,1200,400,319000
B22,880,800,4.35e+06
B23,880,720,3.04e+06
B24,800,560,2.36e+06
B25,720,560,4.29e+06
B26,480,640,11400
B27,880,560,2.44e+06
B28,720,240,8.98e+06
B29,1280,1360,2.15e+06
B30,1840,560,385000
B31,880,1200,17000
B32,800,320,105000
B33,1120,800,2.44e+06
B34,1280,640,6.11e+06
